Article PMC4937304
Where “and” joins values, the source holds several entries; their conditions need not be identical. Identical values can stand only once.

Target: Snf1 (wild type) (S. cerevisiae (endogenous in yeast)) (UniProt P06782)
Test: pull-down

Sequence of UniProt P06782 (P06782 whole entry): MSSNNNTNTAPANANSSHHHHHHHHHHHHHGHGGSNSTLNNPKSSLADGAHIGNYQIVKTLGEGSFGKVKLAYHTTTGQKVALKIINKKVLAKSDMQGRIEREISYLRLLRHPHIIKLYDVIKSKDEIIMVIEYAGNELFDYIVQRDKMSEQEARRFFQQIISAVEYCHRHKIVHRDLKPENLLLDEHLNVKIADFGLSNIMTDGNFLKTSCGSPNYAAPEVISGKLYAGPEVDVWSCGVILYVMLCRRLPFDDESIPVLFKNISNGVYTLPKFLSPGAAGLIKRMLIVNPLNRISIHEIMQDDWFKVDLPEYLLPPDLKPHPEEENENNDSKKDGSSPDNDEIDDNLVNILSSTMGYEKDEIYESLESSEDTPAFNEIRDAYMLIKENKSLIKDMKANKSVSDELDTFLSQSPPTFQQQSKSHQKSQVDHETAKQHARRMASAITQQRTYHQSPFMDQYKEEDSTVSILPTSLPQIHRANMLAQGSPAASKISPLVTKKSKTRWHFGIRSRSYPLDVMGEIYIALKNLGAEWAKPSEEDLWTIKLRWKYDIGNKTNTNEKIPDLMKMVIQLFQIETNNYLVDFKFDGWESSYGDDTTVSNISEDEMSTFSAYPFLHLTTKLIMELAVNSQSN

percent of Snf1 bound to Bmh: 30% and 50%
Substance: Bmh (Bmh1 and Bmh2, collectively) (from UniProt P29311 1-267) (natural protein)
